From patent US20250136720A1 (Boehringer Ingelheim, published 2025) come the findings set out here.

The target of experiment [1] is T1, Human Fibroblast Activation Protein (FAP) on HT1080 cells (human, UniProt Q12884 1-760).
T1 construct: HT1080 cells transduced with human FAP cDNA; also called HT1080-FAP; FAP+ HT1080
Nature of the experiment: flow cytometry, scFv-Fc on HT1080-FAP cells.

Experiment [2] addresses T2, Murine Fibroblast Activation Protein (FAP) on B16 cells (mouse, UniProt P97321 1-761).
T2 construct: B16 cells transduced with murine FAP cDNA; also called B16-FAP
Nature of the experiment: flow cytometry, scFv-Fc on B16-FAP cells.

In the next experiment the target is human FAP protein (human, UniProt Q12884 26-760, limits assumed). The experiment is described as follows: method not stated.
For the next experiment, the target named is T3, mouse FAP protein (mouse, UniProt P97321 1-761).
T3 construct: also called murine FAP
T3 sequence (P97321 other isoform, or with tags, fused parts or gaps limits assumed, form in doubt): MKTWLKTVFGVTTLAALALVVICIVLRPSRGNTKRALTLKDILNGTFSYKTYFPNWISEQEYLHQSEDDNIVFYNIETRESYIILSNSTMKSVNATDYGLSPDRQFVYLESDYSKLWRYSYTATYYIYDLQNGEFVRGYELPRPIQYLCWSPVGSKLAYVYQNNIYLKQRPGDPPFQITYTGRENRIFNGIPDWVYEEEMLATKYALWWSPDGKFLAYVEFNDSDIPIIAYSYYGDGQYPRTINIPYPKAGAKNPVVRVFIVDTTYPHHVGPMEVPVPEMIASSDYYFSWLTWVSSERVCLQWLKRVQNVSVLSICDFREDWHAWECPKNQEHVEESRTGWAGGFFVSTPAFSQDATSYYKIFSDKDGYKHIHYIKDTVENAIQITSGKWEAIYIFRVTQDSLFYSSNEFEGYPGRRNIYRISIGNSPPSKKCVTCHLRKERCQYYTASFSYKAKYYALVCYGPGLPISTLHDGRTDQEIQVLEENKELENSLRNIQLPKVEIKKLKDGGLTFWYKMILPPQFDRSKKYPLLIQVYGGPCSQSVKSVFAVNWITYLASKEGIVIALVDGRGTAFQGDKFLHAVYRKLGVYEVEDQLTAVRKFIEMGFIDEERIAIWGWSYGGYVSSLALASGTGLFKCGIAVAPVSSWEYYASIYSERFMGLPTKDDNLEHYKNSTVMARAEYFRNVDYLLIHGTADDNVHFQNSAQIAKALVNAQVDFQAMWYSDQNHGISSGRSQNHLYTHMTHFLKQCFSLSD
Nature of the experiment: method not stated.

T2 sequence (P97321 other isoform, or with tags, fused parts or gaps): as the sequence (P97321 other isoform, or with tags, fused parts or gaps limits assumed, form in doubt) above

B1: FAP.84.B7 (Fc fusion)
VH: DVQLVESGGGVVRPGESLRLSCAASGFIFRNYAMTWVRQAPGEGLEWVSTIRSSGSGRTDTYYADSVKGRFTISRDSSNNTLYLQMNSLRAEDTAVYYCAKSGTFWDTFFDYWGLGTLVTVSS
VL: EIVLTQNPGTLNLSPGERATLTCRASQSAGRNLAWYQQKPGQTPRLLIYDVNTRATGIPDRFSGSGSGTEFNLTISSLQNEDFAVYYCQQYNNWPPLTFGGGTKVEIK
notes: Tested as scFv-Fc; orientation, linker and Fc of this construct not specified
For B1, the results for the MFI in experiment [1] and in experiment [2] were 24000 MFI and 1610 MFI, respectively.

B2: FAP.84.A11 (Fc fusion)
VH: DVQLVESGGGLVQPGGSLRLSCAASGFSMSNFAMTWVRQAPGEGLEWVSGIRGSGTTYYADSVKGRFTVSRDNSKNTLYLQMNSLRAEDTAIYYCAKTWGTEYFDYWGLGTLVTVSS
VL: EIVLTQSPGTLSLSPGERATLSCRASQPINNYLAWYQQKPGQAPRLLIFSASNRATGIPDRFSGSGSGTEFTLTISSLEPEDFAVYYCQQYYDWPPYTFGGGTKVEIK
notes: as for B1
As for B2, the figures for the MFI in experiment [1] and in experiment [2] were 27300 MFI and 1410 MFI, respectively.

B3: FAP.84.B8 (Fc fusion)
VH: DVQLVESGGSVVRPGESLRLSCAASGFPFSSYPMTWVRQAPGEGLEWVSSIRGSGDRIHYADSVKGRFTISKDSSNNTLYLQMNSLRAEDTAVYYCATGWNFFDYWGLGTLVTVSS
VL: EIVLTQSPGTLSLSPGERATLSCRASQTVATYLAWYQQKPGQAPRLLIYAAISRATGIPDRFSGSGSGTDFTLTITRLEPEDSAVYYCQQYKDWPPLTFGGGTKVEIK
notes: as for B1
Regarding B3, the MFI in experiment [1] stood at 24300 MFI; in experiment [2], 1490 MFI.

B4: FAP.84.A9 (Fc fusion)
VH: DVQLVESGGGVVRPGGSLRLSCAASGFPFSSYPMTWVRQAPGEGLEWVSSIRPIGDRIHYADSVKGRFTISRDSSNNTLYLQMNSLRAEDTAVYYCATGWNFFDYWGLGTLVTVSS
VL: EIVLTQSPGTLSLSPGERATLTCRASQTVATYLAWYQQKPGQAPRLLIYAAISRATGIPDRFIGSGSGTDFTLTINRLEPEDFAVYYCQQYKDWPPLTFGGGTKVEIK
notes: as for B1
Take B4: the results for the MFI in experiment [1] and in experiment [2] were 25400 MFI and 1300 MFI, respectively.

B5: FAP.84.B2 (Fc fusion)
VH: DVQLVESGGGVVRPGESLRLSCAASGFSFSSYAMNWVRQAPGKGLEWVSAISGSGGGTFYADSVKGRFTISRDNSKNTLYLQMNSLRAEDTAIYYCAKDPFGYGFFDSWGLGTLVTVSS
VL: EIVMTQSPATLSVSPGDRATLSCRASQTVGSKLAWYQQKPGQAPRLLIYAASSRATGIPDRFSGSGSGTDFTLTISSLEPEDFAVYYCQQYYNWPPAFGGGTKVEIK
notes: as for B1
Consider B5, for which the MFI in experiment [1] came out at 17300 MFI; in experiment [2], 2260 MFI.

B6: FAP.63.H3 (Fc fusion)
VH: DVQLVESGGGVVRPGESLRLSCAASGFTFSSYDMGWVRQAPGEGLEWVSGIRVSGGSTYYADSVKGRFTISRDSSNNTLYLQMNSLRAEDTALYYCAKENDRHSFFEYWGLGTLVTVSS
VL: EIVLTQSPGTLSLSPGERATLSCRASQSVGYYLAWYQQKPGQAPRLLIYDASDRATAIPDRFSGSGSGTEFTLTISRLEPEDFAVYYCQQYYNNWPPLTFGGGTKVEIK
notes: as for B1
As to B6, the MFI in experiment [1] was 75000 MFI; in experiment [2], 2830 MFI.

B7: FAP-C3 parental (scFv)
scFv: EIVLTQSPGTLSLSPGERATLSCRASQSVGHYLAWYQQKPGQAPRLLIYDASNRAIDIPDRFSGSGSGTEFTLTISRLEPEDFAVYYCQQYYNNWPPLTFGGGTKVEIKGGGGSGGGGSGGGGSGGGGSDVQLVESGGGVVRPGESLTLSCAASGFTFSNYDMGWVRQAPGEGLEWVSGIRGRGGSTYYADSVKGRFTISRDSSKNTLYLQMNSLRAEDTAVYYCAKENNRHSFFEYWGLGTLVTVSS
notes: the format in the KD assay is told only as 'SCFV'; also called FAP-C3SCFVWT; FAP #4
For the molecule B7, the Kd is 0.036 nM with human FAP protein and 33 nM in the experiment with mouse FAP protein.

B8: FAP-C3 VK1-VH14 (FAP #5) (scFv)
scFv: EIVLTQSPGTLSLSPGERATLSCRASQSVGHYLAWYQQKPGQAPRLLIYDASNRAIDIPDRFSGSGSGTEFTLTISRLEPEDFAVYYCQQYYNDWPPLTFGGGTKVEIKGGGGSGGGGSGGGGSGGGGSDVQLVESGGGVVRPGESLTLSCAASGFTFSSYDMGWVRQAPGEGLEWVSGIRGRGGSTYYAESVKGRFTISRESSKNTLYLQMNSLRAEDTAVYYCAKENERHSFFEYWGLGTLVTVSS
notes: format in the KD assay not described; also called FAP-C3VK1VH14 (ND, SY, ES, ES, ER); FAP-C3-VK1-VH4
As to B8, the figures for the Kd in the experiment with human FAP protein and with mouse FAP protein were 0.024 nM and 4.6 nM, respectively.

B9: FAP.84.C11 (Fc fusion)
VH: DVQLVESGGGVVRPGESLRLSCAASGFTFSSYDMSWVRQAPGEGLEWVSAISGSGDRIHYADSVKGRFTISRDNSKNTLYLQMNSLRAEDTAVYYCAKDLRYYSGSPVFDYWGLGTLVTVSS
VL: EIVLTQSPGTLSLSPGERAILSCRASQTVGSRLAWYQQKPGQAPRLLIYAASSRATGIPDRFSGSGSGTEFTLTISSLQSEDFAVYYCQQYYDWPPLTFGGGTKVEIK
notes: as for B1
As for B9, the values for the MFI in experiment [1] and in experiment [2] were 27000 MFI and 1430 MFI, respectively.

B10: FAP-A11 parental (scFv)
scFv: EIVLTQSPGTLSLSPGERATLSCRASQPINNYLAWYQQKPGQAPRLLIFSASNRATGIPDRFSGSGSGTEFTLTISSLEPEDFAVYYCQQYYDWPPYTFGGGTKVEIKGGGGSGGGGSGGGGSGGGGSDVQLVESGGGLVQPGGSLRLSCAASGFSMSNFAMTWVRQAPGEGLEWVSGIRGSGTTYYADSVKGRFTVSRDNSKNTLYLQMNSLRAEDTAIYYCAKTWGTEYFDYWGLGTLVTVSS
notes: the format in the KD assay is told only as 'SCFV'; also called FAP-A11SCFV(WT); FAP #1
Turning to B10, the figures for the Kd in the experiment with human FAP protein and with mouse FAP protein were 1.04 nM and below 0.02 nM, respectively.

B11: FAP-A11 VK3-VH13 (FAP #2) (scFv)
scFv: EIVLTQSPGTLSLSPGERATLSCRASQPIRSYLAWYQQKPGQAPRLLIFSASNRATGIPDRFSGSGSGTEFTLTISSLEPEDFAVYYCQQYYDWPPYTFGGGTKVEIKGGGGSGGGGSGGGGSGGGGSDVQLVESGGGLVQPGGSLRLSCAASGFSMSNFAMTWVRQAPGEGLEWVSGIRGSGTTYYAESVKGRFTVSRDQSKQTLYLQMQSLRAEDTAIYYCAKTWGTEYFDYWGLGTLVTVSS
notes: format in the KD assay not described; also called FAP-A11VK3VH13 (RS, QQQ); A11 VK3/VH3
Take B11: the Kd with human FAP protein was 0.538 nM; in the experiment with mouse FAP protein, below 0.02 nM.

B12: FAP-A11 VK3-VH1 (scFv)
scFv: EIVLTQSPGTLSLSPGERATLSCRASQPIRSYLAWYQQKPGQAPRLLIFSASNRATGIPDRFSGSGSGTEFTLTISSLEPEDFAVYYCQQYYDWPPYTFGGGTKVEIKGGGGSGGGGSGGGGSGGGGSDVQLVESGGGLVQPGGSLRLSCAASGFSMSNFAMTWVRQAPGEGLEWVSGIRGSGTTYYAESVKGRFTVSRDNSKNTLYLQMNSLRAEDTAIYYCAKTWGTEYFDYWGLGTLVTVSS
notes: also called FAP-A11VK3VH1 (RS, NNN)
On to B12, for which the Kd in the experiment with human FAP protein is 0.199 nM; in the experiment with mouse FAP protein it was below 0.02 nM.

B13: FAP-A11 VK7-VH1 (FAP #3) (scFv)
scFv: EIVLTQSPGTLSLSPGERATLSCRASQPISSYLAWYQQKPGQAPRLLIFSASNRATGIPDRFSGSGSGTEFTLTISSLEPEDFAVYYCQQYYDWPPYTFGGGTKVEIKGGGGSGGGGSGGGGSGGGGSDVQLVESGGGLVQPGGSLRLSCAASGFSMSNFAMTWVRQAPGEGLEWVSGIRGSGTTYYAESVKGRFTVSRDNSKNTLYLQMNSLRAEDTAIYYCAKTWGTEYFDYWGLGTLVTVSS
notes: format in the KD assay not described; also called FAP-A11VK7VH1 (SS, NNN)
With B13, the dissociation constant Kd with human FAP protein was 1.5 nM; with mouse FAP protein, below 0.02 nM.

B14: FAP.63.D7 (Fc fusion)
VH: DVQLVESGGGVVRPGESLRLSCAASGFTFSSYAMSWVRQTPGEGLEWVSFISSGGAYTHYTDSVKGRFTISRDNSKNTLYLQMNSLRAEDTAVYYCAKEKEIWNAFFDYWGLGTLVTVSS
VL: EIVLTQSPATLNLSPGDRATLTCRASQTVGSKLAWYQQTSGQAPRLLIYDASSRATGIPDRFSGSGSGTEFTLTISSLEPEDFAVYVCQQYYDWPPLTFGGGTKVEIK
notes: as for B1
For B14, the MFI was determined as 49100 MFI in experiment [1] and 3360 MFI in experiment [2].
